Like-named read-outs stand apart in the source and are kept apart here.
What was measured:
[1] = target: T1, human NT5E expressed on MDA-MB-231 cells (human, UniProt P21589 27-549); assay: cell-based or functional assay
T1 sequence (looked up): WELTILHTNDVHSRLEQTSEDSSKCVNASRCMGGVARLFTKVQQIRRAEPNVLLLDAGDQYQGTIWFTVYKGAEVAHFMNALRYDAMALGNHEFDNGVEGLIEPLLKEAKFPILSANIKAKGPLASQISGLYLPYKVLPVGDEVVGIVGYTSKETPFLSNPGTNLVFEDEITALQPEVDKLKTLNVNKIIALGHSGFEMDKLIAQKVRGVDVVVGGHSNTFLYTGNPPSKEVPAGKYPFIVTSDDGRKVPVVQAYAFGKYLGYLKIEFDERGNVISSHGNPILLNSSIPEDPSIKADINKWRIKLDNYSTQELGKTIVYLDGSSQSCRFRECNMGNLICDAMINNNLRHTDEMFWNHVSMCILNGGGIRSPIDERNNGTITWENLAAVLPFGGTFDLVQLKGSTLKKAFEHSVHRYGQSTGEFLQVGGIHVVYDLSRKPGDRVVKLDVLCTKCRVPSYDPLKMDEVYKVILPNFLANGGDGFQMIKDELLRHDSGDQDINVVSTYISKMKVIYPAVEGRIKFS

[2] = target: T2, Full-length human NT5E (recombinant, in-house) (human, UniProt P21589 27-549); assay: SPR, His-captured NT5E, no ATP
T2 construct: also called hNT5E; hNT5EWT
T2 sequence: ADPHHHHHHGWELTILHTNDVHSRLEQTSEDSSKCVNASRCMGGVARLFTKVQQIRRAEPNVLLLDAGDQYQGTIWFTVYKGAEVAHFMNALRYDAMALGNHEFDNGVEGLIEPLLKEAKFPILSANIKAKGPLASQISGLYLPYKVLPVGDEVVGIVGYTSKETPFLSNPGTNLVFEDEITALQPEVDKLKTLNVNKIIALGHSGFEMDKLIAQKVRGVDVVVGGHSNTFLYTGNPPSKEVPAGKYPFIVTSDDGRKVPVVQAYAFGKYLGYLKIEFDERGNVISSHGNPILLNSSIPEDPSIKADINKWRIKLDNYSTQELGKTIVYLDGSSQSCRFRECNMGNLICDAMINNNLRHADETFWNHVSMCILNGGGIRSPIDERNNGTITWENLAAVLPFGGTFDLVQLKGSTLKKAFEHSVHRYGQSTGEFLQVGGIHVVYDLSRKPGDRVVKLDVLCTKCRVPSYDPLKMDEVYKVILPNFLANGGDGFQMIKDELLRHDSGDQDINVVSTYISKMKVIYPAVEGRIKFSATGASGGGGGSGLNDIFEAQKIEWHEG
Procedure: (§1) All SPR experiments were performed at 25° C. using MASS-1 (Bruker) instrument. hNT5E, mNT5E and cNT5E were immobilized onto a nitrilotriacetic acid (NTA) sensor chip via His-tag. For kinetic experiments, after ligand immobilization, 2-fold serial dilutions of the Fabs were injected. After double-reference subtraction data were analyzed with BiaEvaluation (GE Healthcare) or Sierra Analyser (Bruker) software. The experiments were carried in buffers in presence and absence of 1 mM ATP to compare the kinetic parameters of the Fabs binding to closed and open form of NT5E.

[3] = target: T3, Full-length murine NT5E (recombinant) (murine, UniProt Q61503 29-552); assay: SPR, His-captured NT5E, no ATP
T3 construct: also called mNT5E
T3 sequence: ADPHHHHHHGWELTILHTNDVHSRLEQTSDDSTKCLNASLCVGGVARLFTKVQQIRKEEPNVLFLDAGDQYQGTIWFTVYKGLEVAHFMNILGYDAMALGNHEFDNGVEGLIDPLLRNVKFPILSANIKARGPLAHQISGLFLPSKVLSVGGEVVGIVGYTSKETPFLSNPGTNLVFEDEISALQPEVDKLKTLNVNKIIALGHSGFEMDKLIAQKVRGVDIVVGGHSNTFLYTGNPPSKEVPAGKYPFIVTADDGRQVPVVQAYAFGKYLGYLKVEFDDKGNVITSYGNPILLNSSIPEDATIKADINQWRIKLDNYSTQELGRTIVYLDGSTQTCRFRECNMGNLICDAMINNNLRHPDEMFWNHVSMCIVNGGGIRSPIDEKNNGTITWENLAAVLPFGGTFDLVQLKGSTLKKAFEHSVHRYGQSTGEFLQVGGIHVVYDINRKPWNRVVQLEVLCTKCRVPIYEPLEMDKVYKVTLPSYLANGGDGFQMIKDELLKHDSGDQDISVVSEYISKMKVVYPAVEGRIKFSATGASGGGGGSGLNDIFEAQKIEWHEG
Procedure: as §1

[4] = target: T2, Full-length human NT5E (recombinant, …); assay: SPR, His-captured NT5E, 1 mM ATP
Procedure: as §1

[5] = target: T3, Full-length murine NT5E (recombinant); assay: SPR, His-captured NT5E, 1 mM ATP
Procedure: as §1

[6] = target: T2, Full-length human NT5E (recombinant, …); assay: SPR, hNT5E-6xHis on NTA chip, primary Fab injection; Fab concentration and ATP condition not given
Procedure: After incubation, the remaining NT5E is probed with αStrep-HRP Ab. If there is competition for binding to NT5E, then a decrease in signal would be expected.
as §1

[7] = target: T1, human NT5E expressed on MDA-MB-231 cells; assay: cell-based or functional assay; remark: listed apart in the source
[8] = target: T1, human NT5E expressed on MDA-MB-231 cells; assay: flow cytometry on MDA-MB-231 cells, 1 mM ATP
Procedure: (§2) Flow cytometry analysis of antibodies binding to human NT5E expressed on MDA-MB-231 cells in ATP-free condition (black) or in 1 mM ATP (red). Top panel: (left) 1780 Fab and (right) 1780 IgG titrations. […] Binding was measured at the indicated range of antibody concentrations and is expressed as mean±st. dev of median fluorescence intensity (MFI) of 1-2 replicates. Data were analyzed using OriginLab, and EC₅₀ values are shown next to the fitted curves.
(§3) Human MDA-MB-231 cells and murine 4T1 cells were grown to 90% confluency, detached with 5 mM EDTA for 15 min at 37° C. and then resuspended in 37° C. lx PBS (#10010031, Gibco) supplemented with 1% FBS and 1OpM ZnCl2. Separate working buffers (WB) of PBS and 1% FBS with or without fixed nucleotide concentrations were used throughout all washing steps to maintain constant condition. In 96-well plates (#3799, Costar), 0.2×10⁶ cells were added per well. The plates were spun at 500×g for 5 min and the supernatant was removed. Anti-NT5E antibodies were diluted to the desired concentration in 100 μL WB, added to the cells and the plates were incubated for 20 min at 37° C. Plates were spun and cells were washed twice with WB then spun a second time. Cells were stained with 100 μL of secondary antibody (Alexa Fluor 647 AffiniPure Goat Anti-Human IgG, F(ab′)2 fragment specific, #109-605-006, Jackson, 1:200) dilution and plates were incubated for 20 min at 37° C. Cells were washed twice with WB then fixed on ice with WB supplemented with 0.5% PFA. Fixing solution was removed by centrifugation and cells were resuspended in cold 1× PBS. Samples were analyzed by flow cytometry using CytoFLEX (Beckman Coulter) and mean fluorescence intensity (MFI) data was extracted using FlowJo software. Resulting binding data was plotted using OriginLab.

[9] = target: T1, human NT5E expressed on MDA-MB-231 cells; assay: flow cytometry on MDA-MB-231 cells, 1 mM ATP; remark: listed apart in the source
Procedure: as §2, §3

[10] = target: T3, Full-length murine NT5E (recombinant); assay: SPR, His-captured NT5E, no ATP (* Data generated poor fits)
Procedure: as §1

| Binder | IC50 of NT5E activity on MDA-MB-231 cells, no ATP [1] | IC50 of NT5E activity on MDA-MB-231 cells, with ATP [1] | Kd [2] | koff [2] | kon [2] | Kd [3] | koff [3] | kon [3] | Kd [4] | koff [4] | kon [4] | Kd [5] | koff [5] | kon [5] | binding result [6] | IC50 of NT5E phosphate production on MDA-MB-231 cells, +500 µM ATP [7] | EC50 [8] | EC50 [9] | Kd [10] |
| --- | --- | --- | --- | --- | --- | --- | --- | --- | --- | --- | --- | --- | --- | --- | --- | --- | --- | --- | --- |
| Medi9447 IgG (antibody, V domains shown) VH: EVQLLESGGGLVQPGGSLRLSCAASGFTFSSYAYSWVRQAPGKGLEWVSAISGSGGRTYYADSVKGRFTISRDNSKNTLYLQMNSLRAEDTAVYYCARLGYGRVDEWGRGTLVTVSS VL: QSVLTQPPSASGTPGQRVTISCSGSLSNIGRNPVNWYQQLPGTAPKLLIYLDNLRLSGVPDRFSGSKSGTSASLAISGLQSEDEADYYCATWDDSHPGWTFGGGTKLTVLG | 0.3 nM | 1 nM |  |  |  |  |  |  |  |  |  |  |  |  |  |  |  |  |  |
| 1789 AM32 Fab (Fab, V domains shown, also called Fab32) VH: EVQLVESGGGLVQPGGSLRLSCAASGFNVSYSSIHWVRQAPGKGLEWVARIRGNEGDTYYADSVKGRFTISADTSKNTAYLQMNSLRAEDTAVYYCARNYWGWYPFYYFAFDYWGQGTLVTV VL: DIQMTQSPSSLSASVGDRVTITCRASQSVSSAVAWYQQKPGKAPKLLIYSASSLYSGVPSRFSGSRSGTDFTLTISSLQPEDFATYYCQQGWDYPITFGQGTKVEIKR |  |  | 86 nM | 0.0091 s⁻¹ | 110000 M⁻¹ s⁻¹ | 150 nM | 0.011 s⁻¹ | 78000 M⁻¹ s⁻¹ | 15 nM | 0.0042 s⁻¹ | 270000 M⁻¹ s⁻¹ | 15 nM | 0.0028 s⁻¹ | 190000 M⁻¹ s⁻¹ |  |  |  |  |  |
| 1557 Fab (Fab, V domains shown) VH: EVQLVESGGGLVQPGGSLRLSCAASGFNVYYSSIHWVRQAPGKGLEWVASISSSSGSTSYADSVKGRFTISADTSKNTAYLQMNSLRAEDTAVYYCARYGWWEYGYGGWWHPALDYWGQGTLVTV VL: DIQMTQSPSSLSASVGDRVTITCRASQSVSSAVAWYQQKPGKAPKLLIYSASSLYSGVPSRFSGSRSGTDFTLTISSLQPEDFATYYCQQVWWGPITFGQGTKVEIKR |  |  |  |  |  |  |  |  |  |  |  |  |  |  | binds |  |  |  |  |
| 1780 IgG (antibody, V domains shown) VH: EVQLVESGGGLVQPGGSLRLSCAASGFNFYSYSIHWVRQAPGKGLEWVASISSSSGYTYYADSVKGRFTISADTSKNTAYLQMNSLRAEDTAVYYCARYSWWGWHMEGWWGYMNAFDYWGQGTLVTVSS VL: DIQMTQSPSSLSASVGDRVTITCRASQSVSSAVAWYQQKPGKAPKLLIYSASSLYSGVPSRFSGSRSGTDFTLTISSLQPEDFATYYCQQAHPKPITFGQGTKVEIKR |  |  |  |  |  |  |  |  |  |  |  |  |  |  |  | 50.5 nM | 28 nM | 19.6 nM |  |
| 1789 AM42 Fab (Fab, V domains shown) VH: EVQLVESGGGLVQPGGSLRLSCAASGFNVSYSSIHWVRQAPGKGLEWVAKIRGGHQDTHYADSVKGRFTISADTSKNTAYLQMNSLRAEDTAVYYCARNYWGWYPFYYFAFDYWGQGTLVTV VL: DIQMTQSPSSLSASVGDRVTITCRASQSVSSAVAWYQQKPGKAPKLLIYSASSLYSGVPSRFSGSRSGTDFTLTISSLQPEDFATYYCQQGWDYPITFGQGTKVEIKR |  |  | 38 nM | 0.0067 s⁻¹ | 180000 M⁻¹ s⁻¹ | 63 nM | 0.012 s⁻¹ | 190000 M⁻¹ s⁻¹ | 11 nM | 0.0036 s⁻¹ | 320000 M⁻¹ s⁻¹ | 12 nM | 0.0029 s⁻¹ | 250000 M⁻¹ s⁻¹ |  |  |  |  |  |
| 1789 AM39 Fab (Fab, V domains shown) VH: EVQLVESGGGLVQPGGSLRLSCAASGFNVSYSSIHWVRQAPGKGLEWVASIRGAGSDTRYADSVKGRFTISADTSKNTAYLQMNSLRAEDTAVYYCARNYWGWYPFYYFAFDYWGQGTLVTV VL: DIQMTQSPSSLSASVGDRVTITCRASQSVSSAVAWYQQKPGKAPKLLIYSASSLYSGVPSRFSGSRSGTDFTLTISSLQPEDFATYYCQQGWDYPITFGQGTKVEIKR |  |  | 35 nM | 0.0099 s⁻¹ | 280000 M⁻¹ s⁻¹ |  | 0.013 s⁻¹ | 140000 M⁻¹ s⁻¹ | 7.9 nM | 0.0039 s⁻¹ | 490000 M⁻¹ s⁻¹ | 12 nM | 0.0035 s⁻¹ | 290000 M⁻¹ s⁻¹ |  |  |  |  | 99 nM |

Source: US20240199757A1 (UNIVERSITY OF CHICAGO, published 2024)
